Measurements: paper doi:10.1101/2022.10.08.511438

What was measured:
[1] = molecular target: dihydrolipoyl succinyltransferase (E2o), core of the oxoglutarate dehydrogenase complex, Chaetomium thermophilum (C. thermophilum (endogenous in mycelium lysate)); experiment: label-free MS quantitation
[2] = molecular target: dihydrolipoyl succinyltransferase (E2o), core of the oxoglutarate dehydrogenase complex, Chaetomium thermophilum (C. thermophilum (endogenous in mycelium lysate)); experiment: cryo-EM structure

dihydrolipoyl dehydrogenase (E3), Chaetomium thermophilum (enzyme)
stoichiometry N (E3 dimers relative to 24 E2o subunits) [1]: 4

dihydrolipoyl succinyltransferase (E2o), core of the oxoglutarate dehydrogenase complex, Chaetomium thermophilum (enzyme)
stoichiometry N [2]: 24 subunits

oxoglutarate dehydrogenase (E1o) of the oxoglutarate dehydrogenase complex (OGDHc), Chaetomium thermophilum (enzyme)
stoichiometry N (E1o dimers around the 24-mer E2o core) [1]: 9
stoichiometry N (E1o dimers relative to 24 E2o subunits) [1]: < 10
